Data set [1] has as its target HAdV-D36 fiber knob domain (FK) (Human adenovirus type 36 (HAdV-D36), strain 275). Briefly: crystal structure; fiber knobs crystallised alone or co-crystallised with 10 mM carbohydrate; HAdV-D36 FK: hanging drop, PEG 3,350, NH4Ac, 0.1 M Bis-Tris pH 5.5, 4 C.
Data set [2] deals with the molecule itself. The description is as above.

In data set [1], “HAdV-D36 fiber knob domain (FK) (domain or fragment)” returned a stoichiometry N of 3.

B1: HAdV-D37 fiber knob (FK) (domain or fragment)
chain: GYLVAWNPKYDTRTLWTTPDTSPNCTIAQDKDSKLTLVLTKCGSQILANVSLIVVAGKYHIINNKTNPKIKSFTIKLLFNKNGVLLDNSNLGKAYWNFRSGNSNVSTAYEKAIGFMPNLVAYPKPSNSKKYARDIVYGTIYLGGKPDQPAVIKTTFNQETGCEYSITFNFSWSKTYENVEFETTSFTFSYIAQE
notes: fiber protein of human adenovirus type 37 (HAdV-D37), knob domain; checked against GenBank ABK59080.1 (HAdV-D37 fiber); also called HAdV-D37 FK; HAdV-D37 wt FK; source: construct, expression and purification as described previously [100]
As to B1, the “stoichiometry N” value in data set [2] was 3.

What is called stoichiometry N is a count of units in the complex or per binding partner.
